The values below come from patent US6897017.

Common to all, as to assay: cell-based or functional assay
The target in assay [1] is WinZip-B2 fused to DHFR[2:I114A] (clone of LibB-DHFR[2:I114A]) (murine) (UniProt P00375).
The target of assay [2] is WinZip-B1-DHFR[2:I114A] (murine) (UniProt P00375).
Assay [3] deals with GCN4-DHFR[2:I114A] (murine).

“WinZip-A1-DHFR[1] (from UniProt P00375 1-107) (designed binder)”: in assay [1], the Frequency of dominant pair at P12, shuffling WinZip-A1 + LibB-DHFR[2:I114A] turned out to be 67%; the Selection factor, shuffling WinZip-A1 + LibB-DHFR[2:I114A] was 87000; the frequency of the pair among clones sequenced at P10 was 3 of 5 clones. In assay [2], the Frequency of dominant pair at P12, competition selection (I114A) came out at 82%; the Selection factor, competition selection (I114A) was 3.2e+06; the frequency of the pair among colonies sequenced at P10 was 33%.
With “GCN4-DHFR[1] (from UniProt P03069 253-274; P00375 1-107)”, the GCN4 zippers among sequences from passage 9 of model competition selection (of 24 sequences) in assay [3] stood at 0.
